Reference: article PMC8943916

Molecular target: TIM (the TIM-EGFP-LacI bait of the FRAP experiment, not named)
Experiment: FRAP

- FRAP half-life: 11.7 s
Substance: TagRFP-IWS1-TND (from UniProt Q96ST2 614-692) (domain or fragment)
